Experimental data: PMC7291142

Each substance was assayed on RSV Gag∆PR (Rous sarcoma virus (Prague C strain)) (assay: FA salt titration).

| Substance | Kd |
| --- | --- |
| MΨ-∆L3 | 31 mM |
| MΨ-G218C | 700 mM |
| MΨ-A197C | 9.8 mM |
| MΨ-∆SL-B | 0.096 mM |
| MΨ-WT | 0.23 mM |
